What all share (assay): SPR, antibody captured, C2 as analyte;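 further: biacore at 37 °C, anti-C2 mAbs held by immobilised goat anti-human IgG, C2 alanine or serine mutants injected, double-referenced sensorgrams fitted to a 1:1 kinetic or steady-state model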
(In general: In SPR one partner is held on a chip, and binding of the other changes the refractive index at the surface.)

The target in test [1] is T1, human C2 I438A (human, UniProt P06681 21-752).
T1 sequence: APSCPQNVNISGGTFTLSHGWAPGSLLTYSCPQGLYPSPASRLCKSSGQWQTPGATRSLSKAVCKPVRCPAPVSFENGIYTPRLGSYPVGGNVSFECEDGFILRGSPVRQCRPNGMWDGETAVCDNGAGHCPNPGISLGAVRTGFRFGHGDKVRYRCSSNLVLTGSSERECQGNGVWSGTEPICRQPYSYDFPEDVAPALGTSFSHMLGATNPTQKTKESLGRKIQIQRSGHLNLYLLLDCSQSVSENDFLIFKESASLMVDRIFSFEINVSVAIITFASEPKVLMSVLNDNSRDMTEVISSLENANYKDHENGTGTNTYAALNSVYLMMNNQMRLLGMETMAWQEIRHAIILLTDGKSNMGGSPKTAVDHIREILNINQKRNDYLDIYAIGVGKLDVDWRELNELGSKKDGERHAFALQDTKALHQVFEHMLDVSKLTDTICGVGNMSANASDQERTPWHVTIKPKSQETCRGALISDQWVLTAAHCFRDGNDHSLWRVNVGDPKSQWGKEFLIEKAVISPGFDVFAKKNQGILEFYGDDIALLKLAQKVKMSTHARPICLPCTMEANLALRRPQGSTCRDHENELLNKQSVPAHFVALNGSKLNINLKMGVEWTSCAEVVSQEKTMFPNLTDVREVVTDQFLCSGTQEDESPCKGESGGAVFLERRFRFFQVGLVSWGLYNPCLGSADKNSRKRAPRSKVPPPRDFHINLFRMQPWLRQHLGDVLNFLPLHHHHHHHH

The target of test [2] is T2, human C2 A470S (human, UniProt P06681 21-752).
T2 sequence: T1 sequence with A418I, A450S

The target of test [3] is T3, human C2 K244A (human, UniProt P06681 21-752).
T3 sequence: T1 sequence with K224A, A418I

In test [4] the target is T4, human C2 T317A (human, UniProt P06681 21-752).
T4 sequence: T1 sequence with T297A, A418I

Numbering of substitutions follows the chain as printed.

B1: RF16-242 (antibody, human IgG4 S228P, lambda, V domains shown)
VH: EVQLLQSGAEVKKPGESLKISCKGSGYSFTSYWIGWVRQMPGKGLEWMGIIYPGDSDTRYSPSFQGQVTISADKSISTAYLQWSSLKASDTAMYYCARRGHYGDYFDYWGQGTLVTVSS
VL: SYELTQPPSVSVSPGQTARITCSGDALPKKYAYWYHQKSGQAPVLVIYEDRRRPSEIPERFSGSSSGTMATLTITGAQVEDEGVYFCYSRDRAGNQRVFGGGTQLTVLG
notes: pH-dependent anti-C2 antibody from a phage display library
One may read the Kd as the free concentration of one partner at which half of the binding sites on the other are occupied at equilibrium, for simple one-to-one binding. Read a low Kd as tighter binding. For B1, the Kd in test [1] is 8.7 nM; in test [2], 5 nM; in test [3], 26.2 nM; in test [4] it was 5.9 nM.

The record behind these values is patent US20220332804A1 (CSL INNOVATION, published 2022).
